# Results: patent publication US20220177886, “[…] AGAINST CLOSTRIDIUM […], COMPOSITIONS COMPRISING […] AGAINST CLOSTRIDIUM […] AND METHODS OF USING THE SAME” (Biovector, Inc., published 2022)
# How the values were obtained:
# [1] = molecular target: CotE (rCotE LS25, N281-F712) (Clostridium difficile); experiment: SPR; conditions: tags: His-tagged (Ni-NTA)
# Description: (§1) For CotE D2, CotE H2 and CotEC chitinase, aptamers were spotted on a gold surface at a concentration of 5 μM in PBS at a volume of approximately 10 nL in triplicate. Negative aptamers of the same length as the positive aptamers were spotted in the same manner, also in triplicate. Protein was then injected over the chip at a volume of 200 μL, with a flow rate of 50 μL/min in a Horiba (OpenPlex) surface plasmon resonance imaging (SPRi) instrument. Resonance due to binding was obtained by subtracting total resonance on the negative sequences from total resonance on the positive sequences. Disassociation values were computed with the following equation: dx/dt˜−kd*x, wherein dx/dt is the derivative of resonance values as a function of time and x is the resonance value for any given time point. Association values were computed with the following equation: dx/dt˜ka*c*Rmax−(ka*c+kd)*x, where x is the resonance due to binding at specific time points, c is the concentration of injectant, and Rmax is the maximum resonance observed.
# (§2) Surface plasmon resonance imaging (SPRi) analysis of binding was performed with the various aptamers immobilized on a surface while the protein was flowed over at various concentrations.
# [2] = molecular target: CotEC chitinase (rCotEC, AB45, aa381-712 of CotE) (Clostridium difficile); experiment: SPR; conditions: tags: His-tagged (Ni-NTA)
# Description: as §1, §2
# HIV-1 p24 capsid protein = HIV-1 p24 capsid protein (Human immunodeficiency virus 1, UniProt P04591 P04591:133-363); experiment: negative control protein; only aspecific fluorescence recovery, graphene oxide assay; conditions: tags: E. coli derived; RayBiotech 212-10004; label: 5'-FAM
# Description: Once the quenched signal was stabilized, a fixed concentration of the target protein was added to the aptamer-GO mix (5 nM aptamer+0.5 ng/μL GO), and the recovery in quenched signal was recorded over time.
# As negative control, a non-target protein at the same concentration (HIV cap protein P24) was added to the aptamer-GO mix.
# Using 0.005% PEG in the buffer system, and 5 nM Fam-H2.1.2 with 0.5 ng/μL GO, the recovery of quenched signal was recorded after adding 50 nM of target protein (CotE) and 50 nM negative control protein (P24).
# CotA-His6 [3] = molecular target: T1, CotA-His6 (Clostridium difficile, UniProt Q186G8 SEQ:1-305); experiment: SPR; 7.82E-08; protein immobilized; conditions: tags: His6; optimized potential G-quartet
# T1 sequence: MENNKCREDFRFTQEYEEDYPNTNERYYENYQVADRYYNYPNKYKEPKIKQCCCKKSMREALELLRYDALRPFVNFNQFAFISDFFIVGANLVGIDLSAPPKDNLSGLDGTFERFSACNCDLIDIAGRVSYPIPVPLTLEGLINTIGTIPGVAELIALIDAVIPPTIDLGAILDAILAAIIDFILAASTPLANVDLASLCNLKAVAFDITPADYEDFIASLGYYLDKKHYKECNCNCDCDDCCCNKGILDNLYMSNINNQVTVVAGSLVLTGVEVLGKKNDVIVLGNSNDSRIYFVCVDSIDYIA
# Description: (§3) For CotA C1, the protein was immobilized on a hydrogel chip with EDC-mediated conjugation between primary amines on the protein (side chains on residues) and carboxylic acid groups on the surface of the chip. A protein of similar size was immobilized in the same manner as a negative control. […] For CdeC D1, the protein was received as aggregated, insoluble balls of protein. The binding assay was performed by incubating fluorescently labeled aptamers (FAM) with the protein, and then spinning the tubes down in a microcentrifuge to remove unbound. The pellet was resuspended in selection buffer and spun down again. Bound aptamers were eluted by adding 6 M urea, and spinning again, retaining the supernatant. The aptamers were cleaned up with PCR cleanup columns and the fluorescence was read on a Tecan Sapphire II fluorometer. Excitation was at 497 nm, and emission was at 515 nm. The amount of fluorescence measured in the eluant was divided by the total amount of fluorescence of all fractions.
# CdeC = CdeC (Clostridium difficile); experiment: pulldown; conditions: tags: His-tagged (Ni-NTA)
# Description: (§4) The binding assay was performed by incubating fluorescently labeled aptamers (FAM) with the protein, and then spinning the tubes down in a microcentrifuge to remove unbound. The pellet was resuspended in selection buffer and spun down again. Bound aptamers were eluted by adding 6 M urea, and spinning again, retaining the supernatant. The aptamers were cleaned up with PCR cleanup columns and the fluorescence was read on a Tecan Sapphire II fluorometer. Excitation was at 497 nm, and emission was at 515 nm. The amount of fluorescence measured in the eluant was divided by the total amount of fluorescence of all fractions.
# (§5) D1 CdeC: The original aptamer sequence was SEQ ID NO: 6, which binds to the CdeC protein from C. difficile. […] Two aptamers, D1.1 (SEQ ID NO: 38) and D1.2 (SEQ ID NO: 39), were designed to stabilize the structure observed in the analysis of the original sequence (FIG. 11). The CdeC protein self-aggregates in aqueous solutions making surface plasmon resonance analysis difficult. The protein forms large aggregates that are insoluble. The protein aggregates were combined as suspensions with the aptamers in solutions, allowed to incubate at room temperature for 15 min, and then spun down in a microcentrifuge to remove unbound aptamer. The complexes were washed with the appropriate selection buffer (50 mM Tris pH 7.6, 2.5 mM MgCl₂, 2.5 mM CaCl₂, 85 mM KOAc, 0.01% Tween 20, 0.01% BSA) once and the spin process was repeated. Finally, the bound aptamer was eluted from the protein structures with the addition of 6M urea. The protein aggregates were spun again, and this time the supernatant containing the eluted aptamers was retained. The aptamers were synthesized with a FAM label on the 5′ end for this analysis.
# (§6) The CdeM protein is similar to the CdeC protein in that it forms aggregated balls when purified. An amount of protein equivalent to 1 E8 particles with 1 μM of each of the Em2, Em2.1 and Em2.2 aptamers in a total volume of 50 μL in the CdeM buffer was used. The mixture was allowed to incubate for 15 min at room temperature, then centrifuged. The supernatant was removed, and the pellet resuspended in CdeM buffer. This was centrifuged again and the wash process repeated once more.
# CotA-His6 [4] = molecular target: T1, CotA-His6; experiment: SPR; 1.84E-08; protein immobilized; conditions: tags: His6
# Description: as §3
# CotA-His6 [5] = molecular target: T1, CotA-His6; experiment: SPR; 5.21E-08; protein immobilized; conditions: tags: His6
# Description: as §3
# CdeM = CdeM (Clostridium difficile); experiment: pulldown; conditions: tags: His-tagged (Ni-NTA)
# Description: as §4, §5, §6
binder,measurement,setting,value
AATGGGTGGGAGGGATGGGTACTA (ssDNA) [CotE H2.2],Kd,[1],> 250 nM
CotE D2.1 (ssDNA) DNA: ACTACTCAATGCTCGACATTTCCGCCCCGACGGCCCTCCTAGTGAGGGGAGAGTAGA,Kd,[1],34.1 nM
CotEC Chitinase D11.1 (ssDNA) DNA: AACTGCCTGGTAAATCGATGACCGCTGCCTCGCCTGAGTAATCATCGTACTATCCACAGGTC,Kd,[2],295 nM
CTTGACCTTTGGAATGGGTGGGAGGGAGGGTATCCACAGGTCAACC (ssDNA) [FAM-CotE H2.1.2],binding result,HIV-1 p24 capsid protein,no binding
CTTGACCTTTGGAATGGGTGGGAGGGAGGGTATCCACAGGTCAACC (ssDNA) [CotE H2.1.2],Kd,[1],7.52 nM
ACCCGTGGGACTGGGTCGGGTCGGG (ssDNA) [CotA C1.3],Kd,CotA-His6 [3],78.2 nM
CdeC D1 (ssDNA) DNA: CCAGTGTAGACTACTCAATGCCGTGGACTGGTCGGGTTTGGATTCGGCAGATGAATCAGTAGTACTATCCACAGGTCAACC,binding result,CdeC,binds
CTTGACCTTTGGAATGGGTGGGAGGGATGGGTACTATCCACAGGTCAACC (ssDNA) [CotE H2.1],Kd,[1],17.5 nM
CotE H2.1.1 (ssDNA) DNA: CTTGACCTTTGGAATGGGTAGGGAGGGAGGGATACTATCCACAGGTCAACC,Kd,[1],> 250 nM
ACTCAAGGCCGTGGACTGGTCGGGTTTGGATTCGGCAGATGAATCACT (ssDNA) [CotA C1.1],Kd,CotA-His6 [4],18.4 nM
ACTCAAGGCCGTGGACTGGTCGGGTTTGGAT (ssDNA) [CotA C1.2],Kd,CotA-His6 [5],52.1 nM
CotE D2.2 (ssDNA) DNA: ACTACTCAATGCTCGACATTTCCGCCCCGACGGCCCTCCTAGTGATGGGGAGAGTAGA,Kd,[1],207 nM
CdeM E2/Em2 (ssDNA) DNA: CCAGTGTAGACTACTCAATGCCTTCCATTCACCTACCGAGCTAAGCGTTCGACTTAGGTCTGTACTATCCACAGGTCAACC,binding result,CdeM,binds
CdeM Em2.1 (ssDNA) DNA: CTCAATGCCTTCCATTCACCTACCGAGCTAAGCGTTCGACTTAGGTCTGTACT,binding result,CdeM,binds
CdeC D1.2 (ssDNA) DNA: ACTACTCAATGCCGTGGACTGGTCGGGTTTGGAATCGGCAGATGAATCAGTAGTAAA,binding result,CdeC,binds
